Measurements published in paper PMC12381745.

Experiments:
LHD101B-αLux [1] = assay: split reporter (BiFC, NanoBiT); time-course luminescence; protein-linker-RNA conjugate of A and protein B preincubated until a baseline signal, then RNase A added manually after 30 min; S/B = maximum signal after RNA cleavage divided by the baseline signal
LHD101B-αLux [2] = assay: split reporter (BiFC, NanoBiT); 96-well plate; 2.5 nM BC10 and 2.5 nM B protein with preincubated 100 nM Cas13 and 50 nM crRNA1 in 1x HBS-EP+ buffer, 50 μM LuxSit Pro Substrate; target RNA added after 5 min of baseline; 1 h at room temperature
LHD101B-αLux [3] = assay: split reporter (BiFC, NanoBiT); protein-linker conjugates of protein A with protein B in solution; luminescence relative to the naked cysteine mutant (Figure 2c)

| Binder | S/B change (maximum signal after RNA cleavage by RNase A divided by the baseline signal with intact RNA) (LHD101B-αLux [1]) | other results |
| --- | --- | --- |
| LHD101A-βit I61C-L1-RNA protein-linker-RNA conjugate (designed binder, here or on the partner: cysteine 61 joined by thiol-maleimide Michael addition to linker L1, whose DBCO is joined by SPAAC to the azide-functionalised 17mer RNA conjRNA1) SELAVVAAIISAVARMGVKMELHPSGNEVKVVIKGLHIKQQRQLYRDVREAAKKAGVEVECEVEGDTVTIVVRG | > 1.3 | – |
| LHD101A-βit G65C-L1-RNA protein-linker-RNA conjugate (designed binder, here or on the partner: cysteine 65 joined by thiol-maleimide Michael addition to linker L1, whose DBCO is joined by SPAAC to the azide-functionalised 17mer RNA conjRNA1) SELAVVAAIISAVARMGVKMELHPSGNEVKVVIKGLHIKQQRQLYRDVREAAKKAGVEVEIEVECDTVTIVVRG | > 1.3 | – |
| LHD101A-βit E62C-L2-RNA protein-linker-RNA conjugate (designed binder, here or on the partner: cysteine 62 joined by thiol-maleimide Michael addition to linker L2, whose DBCO is joined by SPAAC to the azide-functionalised 17mer RNA conjRNA1) SELAVVAAIISAVARMGVKMELHPSGNEVKVVIKGLHIKQQRQLYRDVREAAKKAGVEVEICVEGDTVTIVVRG | 1.89 | – |
| LHD101A-βit E62C-L1-RNA protein-linker-RNA conjugate (designed binder, here or on the partner: cysteine 62 joined by thiol-maleimide Michael addition to linker L1, whose DBCO is joined by SPAAC to the azide-functionalised 17mer RNA conjRNA1) SELAVVAAIISAVARMGVKMELHPSGNEVKVVIKGLHIKQQRQLYRDVREAAKKAGVEVEICVEGDTVTIVVRG | 2 | maximum luminescence signal after RNA cleavage by RNase A (LHD101B-αLux [1]): 100000 RLU; maximum S/B ratio (signal after RNA cleavage by activated Cas13 divided by the baseline signal with intact RNA) (LHD101B-αLux [2]): 1.6 |
| LHD101A-βit E60C-L2 protein-linker conjugate (designed binder, here or on the partner: cysteine 60 joined by thiol-maleimide Michael addition to linker L2 (maleimide-DBCO, longer, more flexible)) SELAVVAAIISAVARMGVKMELHPSGNEVKVVIKGLHIKQQRQLYRDVREAAKKAGVEVCIEVEGDTVTIVVRG | – | luminescence signal relative to the naked cysteine mutant (LHD101B-αLux [3]): > 20% |
| LHD101A-βit I61C-L2-RNA protein-linker-RNA conjugate (designed binder, here or on the partner: cysteine 61 joined by thiol-maleimide Michael addition to linker L2, whose DBCO is joined by SPAAC to the azide-functionalised 17mer RNA conjRNA1) SELAVVAAIISAVARMGVKMELHPSGNEVKVVIKGLHIKQQRQLYRDVREAAKKAGVEVECEVEGDTVTIVVRG | > 1.3 | – |
| LHD101A-βit E60C-L1 protein-linker conjugate (designed binder, here or on the partner: cysteine 60 joined by thiol-maleimide Michael addition to linker L1 (maleimide-DBCO, shorter, more rigid)) SELAVVAAIISAVARMGVKMELHPSGNEVKVVIKGLHIKQQRQLYRDVREAAKKAGVEVCIEVEGDTVTIVVRG | – | luminescence signal relative to the naked cysteine mutant (LHD101B-αLux [3]): > 20% |
| LHD101A-βit G65C-L2-RNA protein-linker-RNA conjugate (designed binder, here or on the partner: cysteine 65 joined by thiol-maleimide Michael addition to linker L2, whose DBCO is joined by SPAAC to the azide-functionalised 17mer RNA conjRNA1) SELAVVAAIISAVARMGVKMELHPSGNEVKVVIKGLHIKQQRQLYRDVREAAKKAGVEVEIEVECDTVTIVVRG | > 1.3 | – |
